B1: Transcription factor 12 (Homo sapiens), Q99081-3 (parent)
chain: MNPQQQRMAAIGTDKELSDLLDFSAMFSPPVNSGKTRPTTLGSSQFSGSGIDERGGTTSWGTSGQPSPSYDSSRGFTDSPHYSDHLNDSRLGAHEGLSPTPFMNSNLMGKTSERGSFSLYSRDTGLPGCQSSLLRQDLGLGSPAQLSSSGKPGTAYYSFSATSSRRRPLHDSAALDPLQAKKVRKVPPGLPSSVYAPSPNSDDFNRESPSYPSPKPPTSMFASTFFMQDGTHNSSDLWSSSNGMSQPGFGGILGTSTSHMSQSSSYGNLHSHDRLSYPPHSVSPTDINTSLPPMSSFHRGSTSSSPYVAASHTPPINGSDSILGTRGNAAGSSQTGDALGKALASIYSPDHTSSSFPSNPSTPVGSPSPLTGTSQWPRPGGQAPSSPSYENSLHSLKNRVEQQLHEHLQDAMSFLKDVCEQSRMEDRLDRLDDAIHVLRNHAVGPSTSLPAGHSDIHSLLGPSHNAPIGSLNSNYGGSSLVASSRSASMVGTHREDSVSLNGNHSVLSSTVTTSSTDLNHKTQENYRGGLQSQSGTVVTTEIKTENKEKDENLHEPPSSDDMKSDDESSQKDIKVSSRGRTSSTNEDEDLNPEQKIEREKERRMANNARERLRVRDINEAFKELGRMCQLHLKSEKPQTKLLILHQAVAVILSLEQQVRERNLNPKAACLKRREEEKVSAVSAEPPTTLPGTHPGLSETTNPMGHM
partner: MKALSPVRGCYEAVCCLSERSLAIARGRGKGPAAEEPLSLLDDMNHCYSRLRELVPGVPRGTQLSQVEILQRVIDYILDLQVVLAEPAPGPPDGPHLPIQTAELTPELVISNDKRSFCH
B2: Ligand of Numb protein X 2 (Homo sapiens), Q8N448 (parent)
chain: MGTTSDEMVSVEQTSSSSLNPLCFECGQQHWTRENHLYNYQNEVDDDLVCHICLQPLLQPLDTPCGHTFCYKCLRNFLQEKDFCPLDRKRLHFKLCKKSSILVHKLLDKLLVLCPFSSVCKDVMQRCDLEAHLKNRCPGASHRRVALERRKTSRTQAEIENENGPTLLDPAGTLSPEADCLGTGAVPVERHLTSASLSTWSEEPGLDNPAFEESAGADTTQQPLSLPEGEITTIEIHRSNPYIQLGISIVGGNETPLINIVIQEVYRDGVIARDGRLLAGDQILQVNNYNISNVSHNYARAVLSQPCNTLHLTVLRERRFGNRAHNHSDSNSPREEIFQVALHKRDSGEQLGIKLVRRTDEPGVFILDLLEGGLAAQDGRLSSNDRVLAINGHDLKYGTPELAAQIIQASGERVNLTIARPGKPQPGNTIREAGNHSSSSQHHTPPPYYSRPSSHKDLTQCVTCQEKHITVKKEPHESLGMTVAGGRGSKSGELPIFVTSVPPHGCLARDGRIKRGDVLLNINGIDLTNLSHSEAVAMLKASAASPAVALKALEVQIVEEATQNAEEQPSTFSENEYDASWSPSWVMWLGLPSTLHSCHDIVLRRSYLGSWGFSIVGGYEENHTNQPFFIKTIVLGTPAYYDGRLKCGDMIVAVNGLSTVGMSHSALVPMLKEQRNKVTLTVICWPGSLV
partner: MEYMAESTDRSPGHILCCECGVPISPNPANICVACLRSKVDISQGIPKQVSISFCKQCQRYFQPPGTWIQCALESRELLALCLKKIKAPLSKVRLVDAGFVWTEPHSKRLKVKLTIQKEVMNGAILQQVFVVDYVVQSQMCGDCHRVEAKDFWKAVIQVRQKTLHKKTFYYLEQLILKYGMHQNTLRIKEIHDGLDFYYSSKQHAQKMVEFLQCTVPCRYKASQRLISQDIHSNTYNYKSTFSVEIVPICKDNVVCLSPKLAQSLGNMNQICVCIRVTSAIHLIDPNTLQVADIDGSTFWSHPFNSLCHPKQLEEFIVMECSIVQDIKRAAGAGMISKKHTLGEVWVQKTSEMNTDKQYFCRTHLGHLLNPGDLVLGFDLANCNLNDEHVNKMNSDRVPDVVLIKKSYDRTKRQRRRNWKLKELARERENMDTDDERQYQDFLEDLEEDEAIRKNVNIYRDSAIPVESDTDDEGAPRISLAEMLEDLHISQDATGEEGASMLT
B3: PHD finger protein 1 (Homo sapiens), O43189 (parent)
chain: MAQPPRLSRSGASSLWDPASPAPTSGPRPRLWEGQDVLARWTDGLLYLGTIKKVDSAREVCLVQFEDDSQFLVLWKDISPAALPGEELLCCVCRSETVVPGNRLVSCEKCRHAYHQDCHVPRAPAPGEGEGTSWVCRQCVFAIATKRGGALKKGPYARAMLGMKLSLPYGLKGLDWDAGHLSNRQQSYCYCGGPGEWNLKMLQCRSCLQWFHEACTQCLSKPLLYGDRFYEFECCVCRGGPEKVRRLQLRWVDVAHLVLYHLSVCCKKKYFDFDREILPFTSENWDSLLLGELSDTPKGERSSRLLSALNSHKDRFISGREIKKRKCLFGLHARMPPPVEPPTGDGALTSFPSGQGPGGGVSRPLGKRRRPEPEPLRRRQKGKVEELGPPSAVRNQPEPQEQRERAHLQRALQASVSPPSPSPNQSYQGSSGYNFRPTDARCLPSSPIRMFASFHPSASTAGTSGDSGPPDRSPLELHIGFPTDIPKSAPHSMTASSSSVSSPSPGLPRRSAPPSPLCRSLSPGTGGGVRGGVGYLSRGDPVRVLARRVRPDGSVQYLVEWGGGGIF
partner: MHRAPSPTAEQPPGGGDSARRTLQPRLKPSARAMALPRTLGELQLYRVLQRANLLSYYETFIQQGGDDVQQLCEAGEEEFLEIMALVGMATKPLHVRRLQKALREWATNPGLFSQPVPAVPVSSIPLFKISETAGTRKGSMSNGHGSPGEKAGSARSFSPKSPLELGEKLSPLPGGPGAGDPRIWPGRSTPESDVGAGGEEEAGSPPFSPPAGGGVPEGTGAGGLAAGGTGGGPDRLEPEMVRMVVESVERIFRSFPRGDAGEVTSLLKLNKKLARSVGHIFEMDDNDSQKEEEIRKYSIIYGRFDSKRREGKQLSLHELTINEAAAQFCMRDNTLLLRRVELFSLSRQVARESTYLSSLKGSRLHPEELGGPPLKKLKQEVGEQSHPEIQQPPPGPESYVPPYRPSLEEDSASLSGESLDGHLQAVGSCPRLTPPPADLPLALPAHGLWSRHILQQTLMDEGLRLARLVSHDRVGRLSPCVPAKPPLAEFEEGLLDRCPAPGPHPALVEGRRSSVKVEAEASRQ

Variants of: B1
Conditions: with id3_human ID3, Q02535

| effect of a mutation on the interaction | Variant |
| --- | --- |
| with no effect | S446F |
| with no effect | A155T |
| with no effect | R74G |

Variants of: B2
Conditions: with nmd3_human NMD3, Q96D46

| effect of a mutation on the interaction | Variant |
| --- | --- |
| with no effect | V145I |
| with no effect | T183I |

Variants of: B3
Conditions: with nab2_human NAB2, Q15742

| effect of a mutation on the interaction | Variant |
| --- | --- |
| with no effect | S14L |
